For data set [1], the target named is T1, METTL3 WT;METTL14 WT (Homo sapiens;Homo sapiens, UniProt Q86U44;Q9HCE5 1-580;1-456, |). Nature of the data set: SPR; 1:1 model; FP: 10 mM HEPES pH 7.5, 50 mM KCl, 5 nM RNA; SPR: 10 mM HEPES pH 7.5, 150 mM KCl, 0.05% P20, 25 C; 2-Ap: 50 mM Tris pH 8.0, 10 mM MgCl2, 0.5 uM RNA, read at 37. Particulars: protein: recombinant;recombinant, tags: His-tag removed by TEV;, copies: 1;1.

Data set [2] concerns the target METTL3 WT;METTL14 R298P (Homo sapiens;Homo sapiens, UniProt Q86U44;Q9HCE5 1-580;1-456, |R298P). Briefly: SPR; two-state model; FP: 10 mM HEPES pH 7.5, 50 mM KCl, 5 nM RNA; SPR: 10 mM HEPES pH 7.5, 150 mM KCl, 0.05% P20, 25 C; 2-Ap: 50 mM Tris pH 8.0, 10 mM MgCl2, 0.5 uM RNA, read at 37. Conditions: protein: recombinant;recombinant, tags: His-tag removed by TEV;, copies: 1;1.

Data set [3] has as its target METTL3 R471H;METTL14 WT (Homo sapiens;Homo sapiens, UniProt Q86U44;Q9HCE5 1-580;1-456, R471H|). The description is as above. Particulars: protein: recombinant;recombinant, tags: His-tag removed by TEV;, copies: 1;1.
The target in data set [4] is T1, METTL3 WT;METTL14 WT. Briefly: fluorescence polarization; range given for A-RNA and m6A-RNA together; m6A-RNA said to bind more tightly; FP: 10 mM HEPES pH 7.5, 50 mM KCl, 5 nM RNA; SPR: 10 mM HEPES pH 7.5, 150 mM KCl, 0.05% P20, 25 C; 2-Ap: 50 mM Tris pH 8.0, 10 mM MgCl2, 0.5 uM RNA, read at 37. Conditions: protein: recombinant;recombinant; tags: His-tag removed by TEV;; copies: 1;1; label: 5' fluorescein; predicted bulged stem-loop.

Data set [5] has as its target T1, METTL3 WT;METTL14 WT. Nature of the data set: fluorescence polarization; range given for A-RNA and m6A-RNA together; FP: 10 mM HEPES pH 7.5, 50 mM KCl, 5 nM RNA; SPR: 10 mM HEPES pH 7.5, 150 mM KCl, 0.05% P20, 25 C; 2-Ap: 50 mM Tris pH 8.0, 10 mM MgCl2, 0.5 uM RNA, read at 37. Conditions: protein: recombinant;recombinant; tags: His-tag removed by TEV;; copies: 1;1; label: 5' fluorescein; predicted bulged stem-loop.

Here are results for six molecules from article PMC10441475, “Structure of METTL3-METTL14 with an m6A nucleotide reveals insights into m6A conversion and sensing”.

T1 sequence (Q86U44 whole entry, chain 1 of 2): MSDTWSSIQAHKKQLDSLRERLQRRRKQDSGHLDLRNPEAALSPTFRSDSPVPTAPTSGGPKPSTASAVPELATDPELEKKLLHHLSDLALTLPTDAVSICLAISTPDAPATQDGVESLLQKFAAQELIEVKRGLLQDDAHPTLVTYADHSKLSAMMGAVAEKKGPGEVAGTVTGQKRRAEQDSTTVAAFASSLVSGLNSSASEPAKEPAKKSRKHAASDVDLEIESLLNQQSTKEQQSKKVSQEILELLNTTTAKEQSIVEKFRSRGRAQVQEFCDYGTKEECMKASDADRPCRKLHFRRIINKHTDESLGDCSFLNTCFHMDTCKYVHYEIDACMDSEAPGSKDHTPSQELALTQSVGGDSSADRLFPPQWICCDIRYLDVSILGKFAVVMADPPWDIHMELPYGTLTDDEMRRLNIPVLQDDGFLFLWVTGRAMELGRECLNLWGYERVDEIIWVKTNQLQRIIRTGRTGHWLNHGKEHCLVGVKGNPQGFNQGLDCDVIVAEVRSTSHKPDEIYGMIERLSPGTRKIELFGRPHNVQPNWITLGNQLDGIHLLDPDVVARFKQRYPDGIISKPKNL
T1 sequence (Q9HCE5 whole entry, chain 2 of 2): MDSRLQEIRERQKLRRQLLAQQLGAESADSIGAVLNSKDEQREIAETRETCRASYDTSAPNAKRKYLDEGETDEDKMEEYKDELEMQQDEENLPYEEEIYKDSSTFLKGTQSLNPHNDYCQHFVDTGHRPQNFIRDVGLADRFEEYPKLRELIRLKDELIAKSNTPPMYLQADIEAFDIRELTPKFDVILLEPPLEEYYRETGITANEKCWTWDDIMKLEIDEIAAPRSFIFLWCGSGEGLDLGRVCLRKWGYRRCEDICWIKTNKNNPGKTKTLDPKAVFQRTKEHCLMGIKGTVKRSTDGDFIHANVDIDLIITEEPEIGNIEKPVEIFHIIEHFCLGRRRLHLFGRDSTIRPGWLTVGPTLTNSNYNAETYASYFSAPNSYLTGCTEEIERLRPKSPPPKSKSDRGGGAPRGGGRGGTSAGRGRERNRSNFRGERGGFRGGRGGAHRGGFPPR
METTL3 WT;METTL14 R298P, sequence (Q86U44 whole entry, chain 1 of 2): as the sequence (Q86U44 whole entry, chain 1 of 2) above
METTL3 WT;METTL14 R298P, sequence (Q9HCE5 whole entry R298P, chain 2 of 2): as the sequence (Q9HCE5 whole entry, chain 2 of 2) above, with R298P counted along it
METTL3 R471H;METTL14 WT, sequence (Q86U44 whole entry R471H, chain 1 of 2): as the sequence (Q86U44 whole entry, chain 1 of 2) above, with R471H counted along it
METTL3 R471H;METTL14 WT, sequence (Q9HCE5 whole entry, chain 2 of 2): as the sequence (Q9HCE5 whole entry, chain 2 of 2) above

Consider CUUCGGACUCUGCU (ssRNA) [r6T (biotinyl)], for which the figures for the Kd in data set [1] (linear single strand), in data set [2] (linear single strand) and in data set [3] (linear single strand) were 1360 nM, 2160 nM and 108 nM, respectively.
Consider GCCUAGUAGCAGAGAGGACUGCUCCUUGGU (structured_RNA, m6A at position 18) [rNEAT2-m6A (biotinyl)], for which the Kd was determined as 337 nM in data set [1] (bulged stem-loop), 538 nM in data set [2] (bulged stem-loop) and 62.8 nM in data set [3] (bulged stem-loop).
GCCUAGUAGCAGAGAGGACUGCUCCUUGGU (structured_RNA, m6A at position 18) [Fl-NEAT2*-m6A (m6A-RNA)]: in data set [4], the Kd was roughly 13.4 nM.
Take GCCUAGUAGCAGAGAGGACUGCUCCUUGGU (structured_RNA) [rNEAT2 (biotinyl)]: the Kd in data set [1] (bulged stem-loop) was determined as 256 nM; in data set [2] (bulged stem-loop), 356 nM; in data set [3] (bulged stem-loop) it was 58.8 nM.
In the case of GCCUAGUAGCAGAGAGGACUGCUCCUUGGU (structured_RNA) [Fl-NEAT2* (A-RNA)], the Kd in data set [5] is roughly 13.4 nM.
For CUUCGGACUCUGCU (ssRNA, m6A at position 7) [r6T-m6A (biotinyl)], the figures for the Kd in data set [1] (linear single strand), in data set [2] (linear single strand) and in data set [3] (linear single strand) were 3120 nM, 22900 nM and 171 nM, respectively.
